{"source": "patent US20150337049A1", "about": "(Genmab, published 2015)", "binders": {"B1": {"name": "bsIgG1-CD3×HER2-LFLEDA (IgG1-huCLB-T3/4×HER2-169 with L234F/L235E/D265A) (bispecific antibody)", "heavy 1": "EVQLVESGGGLVKPGGSLRLSCAASGFTFSSYGMFWVRQAPGKGLEWVATISRYSRYIYYPDSVKGRFTISRDNAKNSLYLQMNSLRAEDTAVYYCARRPLYGSSPDYWGQGTLVTVSSASTKGPSVFPLAPSSKSTSGGTAALGCLVKDYFPEPVTVSWNSGALTSGVHTFPAVLQSSGLYSLSSVVTVPSSSLGTQTYICNVNHKPSNTKVDKRVEPKSCDKTHTCPPCPAPEFEGGPSVFLFPPKPKDTLMISRTPEVTCVVVAVSHEDPEVKFNWYVDGVEVHNAKTKPREEQYNSTYRVVSVLTVLHQDWLNGKEYKCKVSNKALPAPIEKTISKAKGQPREPQVYTLPPSREEMTKNQVSLTCLVKGFYPSDIAVEWESNGQPENNYKTTPPVLDSDGSFLLYSKLTVDKSRWQQGNVFSCSVMHEALHNHYTQKSLSLSPGK", "VL 1": "EIVLTQSPATLSLSPGERATLSCSASSSVTYVHWYQQKPGQAPRLLIYDTSKLASGIPARFSGSGSGTDFTLTISSLEPEDFAVYYCFQGSGYPLTFGSGTKLEMR", "heavy 2": "QVQLVQSGAEVKKPGASVKVSCKASGYTFTNYGISWVRQAPGQGLEWMGWLSAYSGNTIYAQKLQGRVTMTTDTSTTTAYMELRSLRSDDTAVYYCARDRIVVRPDYFDYWGQGTLVTVSSASTKGPSVFPLAPSSKSTSGGTAALGCLVKDYFPEPVTVSWNSGALTSGVHTFPAVLQSSGLYSLSSVVTVPSSSLGTQTYICNVNHKPSNTKVDKRVEPKSCDKTHTCPPCPAPEFEGGPSVFLFPPKPKDTLMISRTPEVTCVVVAVSHEDPEVKFNWYVDGVEVHNAKTKPREEQYNSTYRVVSVLTVLHQDWLNGKEYKCKVSNKALPAPIEKTISKAKGQPREPQVYTLPPSREEMTKNQVSLTCLVKGFYPSDIAVEWESNGQPENNYKTTPPVLDSDGSFFLYSRLTVDKSRWQQGNVFSCSVMHEALHNHYTQKSLSLSPGK", "VL 2": "EIVLTQSPATLSLSPGERATLSCRASQSVSSYLAWYQQKPGQAPRLLIYDASNRATGIPARFSGSGSGTDFTLTISSLEPEDFAVYYCQQRSNWPRTFGQGTKVEIK", "notes": "also called huCLB-T3/4×HER2-LFLEDA; copies: 1 + 1 + 1 + 1"}, "B2": {"name": "bsIgG1-CD3×HER2-LFLENQ (IgG1-huCLB-T3/4×HER2-169 with L234F/L235E/N297Q) (bispecific antibody)", "heavy 1": "B1 heavy 1 with A267D, N299Q", "VL 1": "B1 VL 1", "heavy 2": "B1 heavy 2 with A269D, N301Q", "VL 2": "B1 VL 2"}, "B3": {"name": "bsIgG1-CD3×HER2-LFLEPS (IgG1-huCLB-T3/4×HER2-169 with L234F/L235E/P331S) (bispecific antibody)", "heavy 1": "B1 heavy 1 with A267D, P333S", "VL 1": "B1 VL 1", "heavy 2": "B1 heavy 2 with A269D, P335S", "VL 2": "B1 VL 2"}, "B4": {"name": "bsIgG1-CD3×HER2-N297Q (IgG1-huCLB-T3/4×HER2-169 with N297Q) (bispecific antibody)", "heavy 1": "not shown", "VL 1": "B1 VL 1", "heavy 2": "not shown", "VL 2": "B1 VL 2", "notes": "also called NQ"}, "B5": {"name": "bsIgG1-CD3×HER2-… (IgG1-huCLB-T3/4×HER2-169 with L234F/L235E/D265A/N297Q/P331S) (bispecific antibody)", "heavy 1": "B1 heavy 1 with N299Q, P333S", "VL 1": "B1 VL 1", "heavy 2": "B1 heavy 2 with N301Q, P335S", "VL 2": "B1 VL 2"}}, "note": "Residue numbers refer to the chain shown, from its start. In names and notes the source's numbering stands."}
{"target": "T1, HER2 on HER2-positive AU565 cells (human, UniProt P04626 23-1255)", "T1 construct": "whole, on cells", "test": "FACS, AU565 cells", "procedure": "Cells (1×10^5 cells/well) were incubated in polystyrene 96-well round-bottom plates (Greiner bio-one 650101) with serial dilutions of antibody preparations (range 2 to 10000 ng/mL in 4-fold dilutions for Jurkat cells and range 1 to 3000 ng/mL in 4-fold dilutions for on AU565 cells) in 100 μL PBS/0.1% BSA/0.02% azide at 4° C. for 30 min.\nAfter washing twice in PBS/0.1% BSA/0.02% azide, cells were incubated in 100 μL with secondary antibody at 4° C. for 30 min. As a secondary antibody, R-Phycoerythrin (PE)-conjugated goat-anti-human IgG F(ab′)₂ (109-116-098, Jackson ImmunoResearch Laboratories, Inc., West Grove, Pa.) diluted 1/100 in PBS/0.1% BSA/0.02% azide, was used for all experiments. Next, cells were washed twice in PBS/0.1% BSA/0.02% azide, resuspended in 150 μL PBS/0.1% BSA/0.02% azide and analyzed on a FACS CantoII (BD Biosciences). Binding curves were analyzed using non-linear regression (sigmoidal dose-response with variable slope) using GraphPad Prism V5.04 software (GraphPad Software, San Diego, Calif., USA)."}
{"binder": "B1", "binding result": "binds"}
{"binder": "B2", "binding result": "binds"}
{"binder": "B3", "binding result": "binds"}
{"binder": "B4", "binding result": "binds"}
{"binder": "B5", "binding result": "binds"}
{"target": "T2, C1q (from 3% pooled human serum) (human, UniProt P02745 23-245; P02746 28-253; P02747 29-245)", "T2 construct": "Native C1q of pooled human serum, detected with rabbit anti-human C1q", "test": "ELISA, antibody coated, 3% pooled human serum, anti-C1q detection", "procedure": "Plates were washed and blocked with PBS supplemented with 0.025% Tween 20 and 0.1% gelatine. […] Detection was performed by addition of 1 mg/mL 2,2′-azino-bis(3-ethylbenzothiazoline-6-sulfonic acid) (ABTS; Roche, Mannheim, Germany) for about 30 min. The reaction was stopped by the addition of 100 μL 2% oxalic acid. Absorbance was measured at 405 nm in a microplate reader (Biotek, Winooski, Vt.). Log transformed data were analyzed by fitting sigmoidal dose-response curves with variable slope using GraphPad Prism software."}
{"binder": "B1", "binding result": "no binding (tested: coated at 7-30000 ng/mL)"}
{"binder": "B2", "binding result": "no binding (tested: coated at 7-30000 ng/mL)"}
{"binder": "B3", "binding result": "no binding (tested: coated at 7-30000 ng/mL)"}
{"binder": "B4", "binding result": "no binding (tested: coated at 7-30000 ng/mL)"}
{"binder": "B5", "binding result": "no binding (tested: coated at 7-30000 ng/mL)"}
